Values belong to the binder of their own block, whether it stands above or below them.
How the values were obtained:
[1] = molecular target: T1, GST-APXL-1 PDZ domain 1 (Homo sapiens (Human)), Q13796; assay: G' assay; further: key of the grades not given here
T1 chain: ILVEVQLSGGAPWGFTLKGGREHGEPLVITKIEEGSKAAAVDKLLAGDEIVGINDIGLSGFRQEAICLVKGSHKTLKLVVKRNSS

[2] = molecular target: GST-PIST PDZ domain 1 (Mus musculus (Mouse)), Q8BH60; assay: G' assay; further: key of the grades not given here
[3] = molecular target: T2, GST-Outer Membrane PDZ domain 1 (Homo sapiens (Human)), P57105; assay: G' assay; further: key of the grades not given here
T2 chain: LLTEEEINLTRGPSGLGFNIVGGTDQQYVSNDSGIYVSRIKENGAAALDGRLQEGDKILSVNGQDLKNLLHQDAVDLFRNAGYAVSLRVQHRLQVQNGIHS

[4] = molecular target: T3, GST-FLJ00011 PDZ domain 1 (Homo sapiens (Human)), Q9H5P4; assay: G' assay; further: key of the grades not given here
T3 chain: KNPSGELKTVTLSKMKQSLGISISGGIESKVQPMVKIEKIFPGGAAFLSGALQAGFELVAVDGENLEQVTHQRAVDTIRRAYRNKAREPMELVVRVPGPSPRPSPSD

[5] = molecular target: GST-KIAA0316 PDZ domain 1 (Homo sapiens (Human)), Q14CM0; assay: G' assay; conditions: remark: other sources report otherwise; further: key of the grades not given here
[6] = molecular target: T4, GST-Shank 3 PDZ domain 1 (human (hypothetical, computer cloned)), Q9BYB0; assay: G' assay; further: key of the grades not given here
T4 chain: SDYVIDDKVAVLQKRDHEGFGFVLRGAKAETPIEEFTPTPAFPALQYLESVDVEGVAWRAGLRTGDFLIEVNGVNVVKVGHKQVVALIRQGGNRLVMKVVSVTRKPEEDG

[7] = molecular target: GST-Atrophin-1 Interacting Protein PDZ domain 5 (Rattus norvegicus (Rat)), O88382; assay: G' assay; further: key of the grades not given here
[8] = molecular target: T5, GST-PDZK1 PDZ domains 2, 3, 4, Q5T2W1; assay: G' assay; further: key of the grades not given here
T5 chain: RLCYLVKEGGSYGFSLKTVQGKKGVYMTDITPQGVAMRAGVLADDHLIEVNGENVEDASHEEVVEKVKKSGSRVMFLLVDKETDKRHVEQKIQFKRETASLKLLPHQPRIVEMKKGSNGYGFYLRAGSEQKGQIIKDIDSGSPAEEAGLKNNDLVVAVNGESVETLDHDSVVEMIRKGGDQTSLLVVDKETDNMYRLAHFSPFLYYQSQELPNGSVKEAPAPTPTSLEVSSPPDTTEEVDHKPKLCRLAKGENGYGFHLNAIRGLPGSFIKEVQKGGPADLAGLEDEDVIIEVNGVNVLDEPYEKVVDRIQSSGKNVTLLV

[9] = molecular target: GST-KIAA807 [GST: P08515]; assay: G' assay; further: key of the grades not given here
[10] = molecular target: T6, GST-KIAA0807(S) PDZ domain 1 (Homo sapiens (Human)), Q6P0Q8; assay: G' assay; further: key of the grades not given here
T6 chain: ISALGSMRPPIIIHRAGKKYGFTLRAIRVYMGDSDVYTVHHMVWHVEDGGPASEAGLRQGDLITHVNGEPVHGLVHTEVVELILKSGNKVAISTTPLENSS

[11] = molecular target: T7, GST-KIAA0382 PDZ domain 1 (Canis lupus familiaris (Dog) (Canis familiaris)), A0A8I3; assay: G' assay; further: key of the grades not given here
T7 chain: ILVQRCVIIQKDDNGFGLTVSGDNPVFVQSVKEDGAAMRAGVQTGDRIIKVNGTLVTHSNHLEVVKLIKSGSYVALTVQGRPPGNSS

[12] = molecular target: T8, GST-Shank 1 PDZ domain 1 (Homo sapiens (Human)), Q9UPX8; assay: G' assay; further: key of the grades not given here
T8 chain: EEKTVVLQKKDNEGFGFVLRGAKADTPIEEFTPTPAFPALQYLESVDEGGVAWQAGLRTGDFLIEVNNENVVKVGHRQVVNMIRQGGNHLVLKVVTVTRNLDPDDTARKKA

[13] = molecular target: T6, GST-KIAA0807(S) PDZ domain 1 (Homo …); assay: G assay titration, PDZ 0.5 ug/ml
[14] = molecular target: GST-PSD95 PDZ domains 1, 2, 3 (Homo sapiens), P78352; assay: G' assay; further: key of the grades not given here
[15] = molecular target: GST-BAI-1 Associated Protein PDZ domain 4 (Homo sapiens (Human)), Q96QZ7; assay: G' assay; further: key of the grades not given here
[16] = molecular target: GST-BAI-1 Associated Protein PDZ domain 2 (Mus musculus (Mouse)), Q6RHR9; assay: G' assay; further: key of the grades not given here
[17] = molecular target: T9, GST-TIP1 PDZ domain 1 (Table 9 insert) (Homo sapiens (Human)), O14907; assay: G' assay; further: key of the grades not given here
T9 chain: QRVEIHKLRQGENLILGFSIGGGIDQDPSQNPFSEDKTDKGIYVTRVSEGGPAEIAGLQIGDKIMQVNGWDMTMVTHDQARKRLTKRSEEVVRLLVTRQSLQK

[18] = molecular target: T10, GST-KIAA0303 PDZ domain 1 (Homo sapiens (Human)), O15021; assay: G' assay; further: key of the grades not given here
T10 chain: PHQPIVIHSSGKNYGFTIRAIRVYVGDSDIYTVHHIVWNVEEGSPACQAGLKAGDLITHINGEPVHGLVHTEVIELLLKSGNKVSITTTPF

[19] = molecular target: GST-BAI-1 Associated Protein PDZ domain 6 (Homo sapiens (Human)), Q96QZ7; assay: G' assay; further: key of the grades not given here
[20] = molecular target: GST-KIAA1634 PDZ domain 5 (Homo sapiens (Human)), Q5TCQ9; assay: G' assay; further: key of the grades not given here
[21] = molecular target: T11, GST-LIM-RIL PDZ domain 1 (Homo sapiens (Human)), P50479; assay: G' assay; further: key of the grades not given here
T11 chain: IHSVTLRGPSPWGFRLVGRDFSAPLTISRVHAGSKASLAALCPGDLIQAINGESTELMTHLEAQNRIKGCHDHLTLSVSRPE

[22] = molecular target: GST-KIAA0147 PDZ domain 1 (Homo sapiens (Human)), Q14160; assay: G' assay; further: key of the grades not given here
[23] = molecular target: T12, GST-PTN-4 PDZ domain 1 (Homo sapiens (Human)), P29074; assay: G' assay; further: key of the grades not given here
T12 chain: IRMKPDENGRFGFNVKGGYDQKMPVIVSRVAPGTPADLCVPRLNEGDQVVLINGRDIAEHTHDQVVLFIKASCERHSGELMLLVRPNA

Chain of GST-KIAA807 [GST: P08515] (P08515 whole entry, the tested form may be a part): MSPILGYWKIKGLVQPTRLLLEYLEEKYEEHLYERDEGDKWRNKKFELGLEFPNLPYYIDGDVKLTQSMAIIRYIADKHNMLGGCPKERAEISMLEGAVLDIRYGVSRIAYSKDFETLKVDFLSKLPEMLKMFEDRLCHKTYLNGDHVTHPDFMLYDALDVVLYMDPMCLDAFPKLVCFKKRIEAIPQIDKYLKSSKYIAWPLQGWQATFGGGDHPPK
Chain of GST-Atrophin-1 Interacting Protein PDZ domain 5 (Rattus norvegicus (Rat)), O88382 (O88382 1128-1225): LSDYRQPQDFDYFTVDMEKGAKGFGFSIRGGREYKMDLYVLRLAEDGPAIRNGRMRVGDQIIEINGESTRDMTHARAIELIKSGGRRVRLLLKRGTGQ
Chain of GST-KIAA0316 PDZ domain 1 (Homo sapiens (Human)), Q14CM0 (Q14CM0 72-159): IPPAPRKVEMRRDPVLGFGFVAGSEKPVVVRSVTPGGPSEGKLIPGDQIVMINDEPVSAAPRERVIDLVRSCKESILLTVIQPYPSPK
Chain of GST-KIAA1634 PDZ domain 5 (Homo sapiens (Human)), Q5TCQ9 (Q5TCQ9 other isoform, or with tags, fused parts or gaps): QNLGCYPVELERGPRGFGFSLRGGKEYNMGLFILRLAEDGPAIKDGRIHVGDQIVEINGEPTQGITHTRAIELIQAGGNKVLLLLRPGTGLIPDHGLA
Chain of GST-PSD95 PDZ domains 1, 2, 3 (Homo sapiens), P78352 (P78352 62-395): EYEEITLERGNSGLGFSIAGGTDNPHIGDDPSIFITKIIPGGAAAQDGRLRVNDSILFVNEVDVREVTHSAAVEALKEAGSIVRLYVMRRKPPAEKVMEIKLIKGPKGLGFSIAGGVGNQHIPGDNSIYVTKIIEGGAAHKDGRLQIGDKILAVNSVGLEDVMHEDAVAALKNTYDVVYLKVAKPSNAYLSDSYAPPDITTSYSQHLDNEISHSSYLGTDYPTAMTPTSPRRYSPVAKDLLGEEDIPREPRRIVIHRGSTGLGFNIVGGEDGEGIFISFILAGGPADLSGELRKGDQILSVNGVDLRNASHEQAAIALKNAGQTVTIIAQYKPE
Chain of GST-KIAA0147 PDZ domain 1 (Homo sapiens (Human)), Q14160 (Q14160 other isoform, or with tags, fused parts or gaps): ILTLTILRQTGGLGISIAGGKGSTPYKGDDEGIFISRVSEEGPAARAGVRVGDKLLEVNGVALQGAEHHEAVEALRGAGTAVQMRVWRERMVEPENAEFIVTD
Chain of GST-BAI-1 Associated Protein PDZ domain 6 (Homo sapiens (Human)), Q96QZ7 (Q96QZ7 1143-1233): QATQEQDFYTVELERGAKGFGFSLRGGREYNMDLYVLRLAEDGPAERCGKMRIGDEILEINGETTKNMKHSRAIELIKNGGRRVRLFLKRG
Chain of GST-BAI-1 Associated Protein PDZ domain 2 (Mus musculus (Mouse)), Q6RHR9 (Q6RHR9 455-558): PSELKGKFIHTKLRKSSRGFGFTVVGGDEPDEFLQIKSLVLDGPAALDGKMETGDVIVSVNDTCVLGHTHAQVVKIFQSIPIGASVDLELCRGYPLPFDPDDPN
Chain of GST-BAI-1 Associated Protein PDZ domain 4 (Homo sapiens (Human)), Q96QZ7 (Q96QZ7 other isoform, or with tags, fused parts or gaps): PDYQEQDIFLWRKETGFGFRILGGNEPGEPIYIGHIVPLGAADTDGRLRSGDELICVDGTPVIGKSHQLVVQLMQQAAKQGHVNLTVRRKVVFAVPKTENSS

Classification [1]: 2 A450 class
Classification [2]: 1 A450 class
Classification [3]: 2 A450 class
Classification [4]: 3 A450 class
Classification [5]: 1 A450 class
Classification [6]: 2 A450 class
Classification [7]: 1 A450 class
Classification [8]: 1 A450 class
Classification [9]: 5 A450 class
Classification [10]: 5 A450 class
Classification [11]: 1 A450 class
Classification [12]: 4 A450 class
Kd [13]: 350 nM
B1: PAG (peptide)
peptide: KENDYESISDLQQGRDITRL
modifications: not checked

Classification [14]: 5 A450 class
Classification [15]: 5 A450 class
Classification [16]: 4 A450 class
Classification [17]: 5 A450 class
Classification [18]: 4 A450 class
Classification [9]: 4 A450 class
B2: alpha-2B Adrenergic receptor (peptide)
peptide: QDFRRAFRRILARPWTQTAW
modifications: not checked

Classification [19]: 1 A450 class
Classification [20]: 1 A450 class
Classification [21]: 1 A450 class
Classification [7]: 1 A450 class
Classification [22]: 1 A450 class
Classification [9]: 5 A450 class
Classification [23]: 1 A450 class
Classification [10]: 3 A450 class
Classification [11]: 1 A450 class
Classification [12]: 1 A450 class
B3: CD34 (peptide)
peptide: QATSRNGHSARQHVVADTEL
modifications: not checked

From US20050282743A1, “Molecular interactions in cells” (Arbor Vita Corporation, priority 2001, published 2005)
